Measurements published in patent US20180244778A1 (THERAPIX BIOSCIENCES, published 2018).

Key:
[1] = target: T1, human cell-surface CD3 (Cluster of Differentiation 3) on Jurkat cells (human, UniProt P07766 23-207); test: direct binding by FACS, dilution series on 3×10^5 Jurkat cells
T1 construct: whole, on cells; CD3 is a complex of several chains; also called human CD3; CD3 T-cell-surface molecule

[2] = target: T1, human cell-surface CD3 (Cluster of …); test: competition FACS on Jurkat cells; competitor OKT3-PE at 0.02 µg/mL

B1: OKT3-PE labeled conjugate (Abcam Cat. No. ab86882) (antibody, mouse IgG2a, V domains shown)
VH: not shown
VL: QIVLTQSPAIMSASPGEKVTMTCSASSSVSYMNWYQQKSGTSPKRWIYDTSKLASGVPAHFRGSGSGTSYSLTISGMEAEDAATYYCQQWSSNPFTFGSGTKLEINR
modifications: PE (phycoerythrin) conjugate, site not stated
notes: Bought PE conjugate of OKT3; also called labeled OKT3
[1]
  EC50: 0.02 µg/mL

B2: VH2ala/Vκ2 humanized anti-CD3 mAb (antibody, V domains shown)
VH: QVQLVQSGSELKKPGASVKVSCKASGYTFTRYTMHWVRQAPGKGLEWIGYINPSRGYTNYNQKFKDRATITTDKSTSTAYMELSSLRSEDTAVYYCARYYDDHYALDYWGQGTLVTVSS
VL: QIVLTQSPATLSLSPGERATLSCSASSSVSYMNWYQQKPGKAPKRWIYDTSKLASGVPSRFSGSGSGTDYTLTISSLQPEDFATYYCQQWSSNPFTFGGGTKVEIKR
[2]
  IC50: 0.045 µg/mL

B3: VH2val/Vκ2 humanized anti-CD3 mAb (antibody, V domains shown)
VH: QVQLVQSGSELKKPGASVKVSCKASGYTFTRYTMHWVRQAPGKGLEWIGYINPSRGYTNYNQKFKDRATITTDKSTSTAYMELSSLRSEDTAVYYCARYYDDHYVLDYWGQGTLVTVSS
VL: QIVLTQSPATLSLSPGERATLSCSASSSVSYMNWYQQKPGKAPKRWIYDTSKLASGVPSRFSGSGSGTDYTLTISSLQPEDFATYYCQQWSSNPFTFGGGTKVEIKR
[2]
  IC50: 0.055 µg/mL

B4: VH2ser/Vκ2 humanized anti-CD3 mAb (antibody, V domains shown)
VH: QVQLVQSGSELKKPGASVKVSCKASGYTFTRYTMHWVRQAPGKGLEWIGYINPSRGYTNYNQKFKDRATITTDKSTSTAYMELSSLRSEDTAVYYCARYYDDHYSLDYWGQGTLVTVSS
VL: QIVLTQSPATLSLSPGERATLSCSASSSVSYMNWYQQKPGKAPKRWIYDTSKLASGVPSRFSGSGSGTDYTLTISSLQPEDFATYYCQQWSSNPFTFGGGTKVEIK
notes: Human IgG4 (Ser241Pro) / κ; also called VH2ser/Vκ2 mutant; VH2scr/VK2
[2]
  IC50: 0.041 µg/mL
